In patent US20110189190A1 (Eli Lilly, published 2011):
Where a chain is given by its changes, count along the chain named.

Assays:
human hepcidin-25 [1] = target: T1, human hepcidin-25 (human); experiment: immunoprecipitation from human serum on plate-coated antibody, acid elution, MALDI-TOF mass spectrometry (linear mode)
T1 construct: also called mature human hepcidin; human hepcidin-25 control peptide
T1 peptide: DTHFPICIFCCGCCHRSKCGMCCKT
Text: (§1) Signal 1 has a mass which is consistent with the expected mass of intact human hepcidin-25 (approximate molecular weight (MW) of 2790 Daltons (Da)). Signal 2 has a mass which is consistent with the expected mass of intact human hepcidin-20 (MW of 2192 Da). […] The mass spectrum was generated on a MALDI-TOF mass spectrometer utilizing a positive ion, linear mode method with a-cyano-4-hydroxycinnamic acid (peptide matrix) as sample matrix essentially as described in Example 6 below.
(§2) Anti-human hepcidin Mabs or Fabs are coated onto separate wells of a 96-well standard ELISA plate in carbonate-bicarbonate (pH 9.4) buffer for 1 hour at room temperature at a concentration of 2 mg/L. The wells are then aspirated and washed 3 times with TBST. Human serum samples containing a known amount of hepcidin-25 (diluted in assay buffer) is added at 100 μl/well for one hour at room temperature. The wells are aspirated and washed 3 times with TBST. Captured hepcidin polypeptides are eluted by adding 40 μL/well of 0.1% formic acid for 5 minutes at room temperature. […] The sample is dried and analyzed with a 4700 TOF-TOF Mass Spectrometer (Applied Biosystems) operated in the linear mode.

human hepcidin-20 [2] = target: T2, human hepcidin-20 (human); experiment: as above
T2 construct: Endogenous serum form (MW 2192 Da) in the MALDI-TOF experiments
T2 peptide: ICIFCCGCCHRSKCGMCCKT
Text: as §1, §2

human hepcidin-25 [3] = target: T1, human hepcidin-25; experiment: SPR, Mab immobilized on CM4 chip
Description: The flow cells were then injected with human hepcidin-25. Next, the flow cells were injected with Mab 5E8.

human hepcidin-25 [4] = target: T1, human hepcidin-25; experiment: SPR
rat hepcidin-25 [5] = target: T3, rat hepcidin-25 (rat); experiment: SPR, 25 C
T3 peptide: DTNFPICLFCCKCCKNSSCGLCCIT

human hepcidin-22 [6] = target: T4, human hepcidin-22 (human); experiment: SPR, 25 C
T4 construct: Endogenous serum form (MW 2436 Da) in the MALDI-TOF experiments
T4 peptide: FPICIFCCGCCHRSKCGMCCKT

mouse hepcidin-25 [7] = target: T5, mouse hepcidin-25 (mouse); experiment: SPR, 25 C
T5 peptide: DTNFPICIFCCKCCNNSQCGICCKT

human hepcidin-20 [8] = target: T2, human hepcidin-20; experiment: SPR, 25 C, Mab captured
human hepcidin-25 [9] = target: T1, human hepcidin-25; experiment: SPR, Mab captured by anti-mouse IgG1 Fc
Description: Briefly, on a Biacore® T100, goat anti-mouse IgG1 Fc polyclonal antibody was immobilized onto flow cell 1 to 4 of CMS chip at 5000-15000 response units (Ru). Mab 5E8 was captured on flow cell 2, Mab 4C11 was captured on flow cell 3, and Mab 3A9 was captured on flow cell 4. Flow cell 1 was used as a reference flow cell. All flow cells were then injected with human hepcidin-25.

human hepcidin-25 [10] = target: T1, human hepcidin-25; experiment: SPR, 25 C, Mab captured, hepcidin-25 injected
Description: A SPR biosensor such as the BlAcore® T100 may be used to measure binding kinetics and affinity of antibodies such as the antibodies disclosed herein. The BIAcore® system utilizes the optical properties of SPR to detect alteration in protein concentration of interacting molecules within a dextran biosensor matrix. Except as noted, all reagents and materials are purchased from BIAcore® AB (Upsala, Sweden). All measurements are performed at 25° C. Samples are dissolved in HBS-EP buffer (150 mM sodium chloride, 3 mM EDTA, 0.05% (w/v) surfactant P-20, and 10 mM HEPES, pH 7.4). To capture Fabs with human kappa, goat-anti-human kappa is immobilized on flow cells 1 to 4 of a CMS sensor chip at a level of 5000-10000 response units (Rus) using an amine coupling kit. To capture Mabs with mouse IgG1, goat-anti-mouse Fc gamma is immobilized on flow cells 1 to 4 of a CMS sensor chip at a level of 5000-10000 Rus using an amine coupling kit. […] Fabs prepared from E. coli periplasma and Mabs prepared from mammalian cell culture are evaluated using multiple analytical cycles. […] The measurements are obtained at 25° C. and the association and dissociation rates for each cycle are evaluated using a “1:1 with mass transfer” binding model in the BIAevaluation software.

human hepcidin-22 [11] = target: T4, human hepcidin-22; experiment: MSD sandwich immunoassay: Mab OH4 capture, ruthenium-labelled Mab 3.23 detection; no sandwich signal (assigned to the capture antibody OH4)
Description: (§3) Streptavidin-coated and blocked wells of an ELISA plate were incubated for 1 hour with biotinylated Mab OH4 at a concentration of 2 mg/L. Afterward, wells were aspirated and washed three times with TBST (Tris buffered saline containing 10 mmol/L Tris pH 7.40, 150 mmol/L NaCl with 1 mL Tween 20/L). Next, 100 μL of hepcidin standards (varying concentrations of synthesized hepcidin-25 protein in assay buffer consisting of 50 mmol/L HEPES, pH 7.40, 150 mmol/L NaCl, 10 mL/L Triton X-100, 5 mmol/L EDTA, and 5 mmol/L EGTA) were added to the wells to generate a calibration curve. At the same time, serum samples were diluted 1:20 in assay buffer and added to their respective wells, and the ELISA plate was allowed to incubate for 1 hour at room temperature. […] Following aspiration, wells were washed three times with TBST, and the ELISA plate was developed using a MSD reader, which passed a voltage across the wells and recorded ruthenium electrochemiluminescence from each well. MSD software and SigmaPlot version 8.0 were used for fitting of the calibration curves for the ELISA.
(§4) Synthesized hepcidin-25 protein was prepared at a concentration of 10 μg/L and serially diluted to create a standard curve.

human hepcidin-20 [12] = target: T2, human hepcidin-20; experiment: as above
Description: as §3, §4

human hepcidin-25 [13] = target: T1, human hepcidin-25; experiment: SPR, 25 C
human hepcidin-20 [14] = target: T2, human hepcidin-20; experiment: immunoprecipitation from human serum, MALDI-TOF mass spectrometry
Description: Anti-human hepcidin Mabs or Fabs are coated onto separate wells of a 96-well standard ELISA plate in carbonate-bicarbonate (pH 9.4) buffer for 1 hour at room temperature at a concentration of 2 mg/L. The wells are then aspirated and washed 3 times with TBST. Human serum samples containing a known amount of hepcidin-25 (diluted in assay buffer) is added at 100 μl/well for one hour at room temperature. The wells are aspirated and washed 3 times with TBST. Captured hepcidin polypeptides are eluted by adding 40 μL/well of 0.1% formic acid for 5 minutes at room temperature. The eluted samples are collected and concentrated with a C4 ZipTip™ (Millipore, Billerica, Mass.), a 10 μL pipette tip with a bed of chromatography media for purifying and concentrating femtomoles to picomoles of protein or peptides, ideally ranging from 25,000 MW to 100,000 MW. […] The sample is dried and analyzed with a 4700 TOF-TOF Mass Spectrometer (Applied Biosystems) operated in the linear mode.
(§5) Similar experiments were performed using MALDI-TOF spectrometry to determine which hepcidin species in human serum are bound by Mab 5E8. These experiments determined that Mab 5E8 bound only hepcidin-25 in human serum (FIGS. 3 and 4). […]

human hepcidin-25 [15] = target: T1, human hepcidin-25; experiment: immunoprecipitation from human serum on plate-coated antibody, acid elution, MALDI-TOF mass spectrometry (linear mode)
Text: FIG. 3 depicts a MALDI-TOF mass spectrum of the forms of human hepcidin immunoprecipitated from human sera with the anti-hepcidin-25 selective Mab 5E8. Signal 1 has a mass which is consistent with the expected mass of intact human hepcidin-25 (2790 Da). […] The mass spectrum was generated on a MALDI-TOF mass spectrometer utilizing a positive ion, linear mode method with a-cyano-4-hydroxycinnamic acid (peptide matrix) as sample matrix essentially as described in Example 6 below.
as §2, with “TBST.” for “TBST. Captured hepcidin polypeptides are eluted by adding 40 μL/well of 0.1% formic acid for 5 minutes at room temperature.”
as §5

rat hepcidin-25 [16] = target: T3, rat hepcidin-25; experiment: SPR, 25 C, Mab captured
mouse hepcidin-25 [17] = target: T5, mouse hepcidin-25; experiment: SPR, 25 C, Mab captured

B1: Anti-hepcidin Mab 3.23 (antibody, human IgG4 S228P, kappa, V domains shown)
VH: QVQLVQSGAEVKKPGSSVKVSCKASGYTFLIYPISWVRQAPGQGLEWMGNFHPYLGVTNYVEKFKGRVTITADKSTSTAYMELSSLRSEDTAVYYCARGGTGSFDYWGQGTTVTVSS
VL: DIQMTQSPSSLSASVGDRVTITCSASSRVSSTYLFWYQQKPGKAPKLLIYRTSPLASGVPSRFSGSGSGTDFTLTISSLQPEDFATYYCQQWSGYPFVFGGGTKVEIKR
B1: binds (human hepcidin-25 [1]); binds (human hepcidin-20 [2]).

B2: Anti-hepcidin Mab 3.12 (antibody, human IgG4 S228P, kappa, V domains shown)
VH: B1 VH with V61L
VL: B1 VL with P54T, A56T
B2: binds (human hepcidin-25 [3]).

B3: mouse monoclonal antibody 3A9 (antibody, mouse IgG1, kappa, V domains shown)
VH: EVKLVESGPGILQPSQTLSLTCSFSGFSLNSYGFGIGWIRQPSGKGLEWLTHIWWNGNKYYNTTLKSRLTISKDTSNNQVFLKIASLDTADTATYYCALIHYYGNSYGFAYWGQGTLVTVSA
VL: DIQMNQSPALMSASPGEKVTMTCSASSSVSSMYWYQQKPRSSPKPWIYLTSNLASGVPPRFSGSGSGTSYSLTISNMEAEDAATYYCQQWSSYPPTFGGGTKLEIKR
notes: also called Mab 3A9
B3: binds (human hepcidin-25 [4]).

B4: mouse monoclonal antibody 4C11 (antibody, mouse IgG1, kappa, V domains shown)
VH: QVQLKQSGPGILQPSQTLSLTCSFSGFSLSTYGIGVGWIRQPAGKGLEWLAHIWWNDNKSYNTALKSRLTISKDTSNNQVFLKIASVDTTHTATYYCVVIGYYGSTSGFAYWGQGTLVTVSA
VL: B3 VL with D1Q, Q3L, M4L, N5T, S31Y, P59A, N76S, Y93N
notes: also called Mab 4C11
In the case of B4, the binding result (rat hepcidin-25 [5]) is reported as “binds”, the Kd (human hepcidin-22 [6]) is reported as ~209 nM and the binding result (mouse hepcidin-25 [7]) is reported as “binds”. B4: no binding (human hepcidin-20 [8]); binds (human hepcidin-25 [9]).

B5: mouse monoclonal antibody OH4 (antibody, mouse IgG1, kappa, V domains shown)
VH: EVKLVESGGGLVKPGGSLKISCAASGFAFSSYDMSWVRQTPEKRLEWVATIISGGTYTYYPDSVKGRFTISRDNARNTLNLQMSSLRAEDTALYYCADDGYIHWGQGTLVTVSA
VL: DIVMTQIPLTLSVTIGQPASISCKSSQSLLYPNGKTYLTWLLQRPGQSPKRLIYLVSKLDPGVPDRFTGSGSGADFTLKISRVEAEDLGIYYCIQGSHFPWTFGGGTKLELKR
notes: also called Mab OH4
In the case of B5, the Kd (human hepcidin-25 [10]) is reported as ~1.2 nM, the binding result (human hepcidin-22 [11]) is reported as “no binding (tested: 10 ug/L)” and the binding result (human hepcidin-20 [12]) is reported as “no binding (tested: 10 ug/L)”.

B6: mouse monoclonal antibody OB3 (antibody, mouse IgG1, kappa, V domains shown)
VH: B5 VH
VL: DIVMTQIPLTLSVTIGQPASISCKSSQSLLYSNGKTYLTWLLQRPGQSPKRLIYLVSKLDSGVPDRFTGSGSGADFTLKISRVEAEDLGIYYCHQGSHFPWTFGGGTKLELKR
B6: binds (human hepcidin-25 [13]).

B7: mouse monoclonal antibody 5E8 (antibody, mouse IgG1, kappa, V domains shown)
VH: B5 VH
VL: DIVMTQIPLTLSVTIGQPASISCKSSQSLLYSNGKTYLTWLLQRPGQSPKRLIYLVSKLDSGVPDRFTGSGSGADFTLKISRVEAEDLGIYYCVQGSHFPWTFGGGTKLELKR
notes: also called Mab 5E8
B7: no binding (human hepcidin-20 [14]); binds (human hepcidin-25 [15]); no binding (rat hepcidin-25 [16]). B7: no binding (mouse hepcidin-25 [17]).

B8: mouse monoclonal antibody OE1 (antibody, mouse IgG1, kappa, V domains shown)
VH: B5 VH
VL: B5 VL with I94F, T102V
notes: also called 0E1
B8: binds (human hepcidin-25 [13]).

B9: mouse monoclonal antibody OB1 (antibody, mouse IgG1, kappa, V domains shown)
VH: B5 VH
VL: B5 VL with P32R, I94H
B9: binds (human hepcidin-25 [13]).
